Drawing on patent publication US20240197828A1, “Chimeric molecule to treat sepsis and other inflammatory conditions” (THE FEINSTEIN INSTITUTES FOR MEDICAL RESEARCH, priority 2022, published 2024), this text covers Kd for 1 molecule.

This test has as its target T1, rhCIRP (Homo sapiens, UniProt Q14011).
T1 sequence (Q14011 1-172): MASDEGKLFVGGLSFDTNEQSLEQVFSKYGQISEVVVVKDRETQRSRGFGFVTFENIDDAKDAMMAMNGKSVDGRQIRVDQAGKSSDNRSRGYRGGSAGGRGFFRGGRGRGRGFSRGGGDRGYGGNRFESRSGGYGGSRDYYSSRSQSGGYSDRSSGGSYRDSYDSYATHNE
Put plainly: Biacore binding of recombinant human proteins (rhCIRP and rhMFG-E8). The settings on record: read-out: KD between rhCIRP and rhMFG-E8. On the technique in general: In SPR one partner is held on a chip, and binding of the other changes the refractive index at the surface.

Usually Kd stands for a measure of binding affinity in units of concentration.

B1: rhMFG-E8: recombinant human MFG-E8 (protein)
chain: LDICSKNPCHNGGLCEEISQEVRGDVFPSYTCTCLKGYAGNHCETKCVEPLGLENGNIANSQIAASSVRVTFLGLQHWVPELARLNRAGMVNAWTPSSNDDNPWIQVNLLRRMWVTGVVTQGASRLASHEYLKAFKVAYSLNGHEFDFIHDVNKKHKEFVGNWNKNAVHVNLFETPVEAQYVRLYPTSCHTACTLRFELLGCELNGCANPLGLKNNSIPDKQITASSSYKTWGLHLFSWNPSYARLDKQGNFNAWVAGSYGNDQWLQVDLGSSKEVTGIITQGARNFGSVQFVASYKVAYSNDSANWTEYQDPRTGSSKIFPGNWDNHSHKKNLFETPILARYVRILPVAWHNRIALRLELLGC
Turning to B1, the Kd was 0.029 µM.
